Measurements from doi:10.1101/430835 (bioRxiv, 2019).
Several values for one entry are separate records, joined by “and”; a condition that tells them apart may be missing. Equal entries are not always repeated.

Target: the molecule itself
Experiment: native gel or EMSA

Protein	stoichiometry N
Uncoupling protein 2 (UCP2) (natural protein, human, UniProt P55851 1-309, looked up) MVGFKATDVPPTATVKFLGAGTAACIADLITFPLDTAKVRLQIQGESQGPVRATASAQYRGVMGTILTMVRTEGPRSLYNGLVAGLQRQMSFASVRIGLYDSVKQFYTKGSEHASIGSRLLAGSTTGALAVAVAQPTDVVKVRFQAQARAGGGRRYQSTVNAYKTIAREEGFRGLWKGTSPNVARNAIVNCAELVTYDLIKDALLKANLMTDDLPCHFTSAFGAGFCTTVIASPVDVVKTRYMNSALGQYSSAGHCALTMLQKEGPRAFYKGFMPSFLRLGSWNVVMFVTYEQLKRALMAACTSREAPF	2 and 4
bovine ADP/ATP carrier protein isoform 1 (AAC1) (natural protein) SDQALSFLKDFLAGGVAAAISKTAVAPIERVKLLLQVQHASKQISAEKQYKGIIDCVVRIPKEQGFLSFWRGNLANVIRYFPTQALNFAFKDKYKQIFLGGVDRHKQFWRYFAGNLASGGAAGATSLCFVYPLDFARTRLAADVGKGAAQREFTGLGNCITKIFKSDGLRGLYQGFNVSVQGIIIYRAAYFGVYDTAKGMLPDPKNVHIIVSWMIAQTVTAVAGLVSYPFDTVRRRMMMQSGRKGADIMYTGTVDCWRKIAKDEGPKAFFKGAWSNVLRGMGGAFVLVLYDEIKKFV	2
